Experimental data reported in patent US20260139023A1.

Target: full-length integrin αVβ5 ectopically expressed on HEK293T cells (UniProt P06756)
Assay: cell-based or functional assay

Chain of full-length integrin αVβ5 ectopically expressed on HEK293T cells (P06756 31-1048 limits assumed, chain 1 of 2): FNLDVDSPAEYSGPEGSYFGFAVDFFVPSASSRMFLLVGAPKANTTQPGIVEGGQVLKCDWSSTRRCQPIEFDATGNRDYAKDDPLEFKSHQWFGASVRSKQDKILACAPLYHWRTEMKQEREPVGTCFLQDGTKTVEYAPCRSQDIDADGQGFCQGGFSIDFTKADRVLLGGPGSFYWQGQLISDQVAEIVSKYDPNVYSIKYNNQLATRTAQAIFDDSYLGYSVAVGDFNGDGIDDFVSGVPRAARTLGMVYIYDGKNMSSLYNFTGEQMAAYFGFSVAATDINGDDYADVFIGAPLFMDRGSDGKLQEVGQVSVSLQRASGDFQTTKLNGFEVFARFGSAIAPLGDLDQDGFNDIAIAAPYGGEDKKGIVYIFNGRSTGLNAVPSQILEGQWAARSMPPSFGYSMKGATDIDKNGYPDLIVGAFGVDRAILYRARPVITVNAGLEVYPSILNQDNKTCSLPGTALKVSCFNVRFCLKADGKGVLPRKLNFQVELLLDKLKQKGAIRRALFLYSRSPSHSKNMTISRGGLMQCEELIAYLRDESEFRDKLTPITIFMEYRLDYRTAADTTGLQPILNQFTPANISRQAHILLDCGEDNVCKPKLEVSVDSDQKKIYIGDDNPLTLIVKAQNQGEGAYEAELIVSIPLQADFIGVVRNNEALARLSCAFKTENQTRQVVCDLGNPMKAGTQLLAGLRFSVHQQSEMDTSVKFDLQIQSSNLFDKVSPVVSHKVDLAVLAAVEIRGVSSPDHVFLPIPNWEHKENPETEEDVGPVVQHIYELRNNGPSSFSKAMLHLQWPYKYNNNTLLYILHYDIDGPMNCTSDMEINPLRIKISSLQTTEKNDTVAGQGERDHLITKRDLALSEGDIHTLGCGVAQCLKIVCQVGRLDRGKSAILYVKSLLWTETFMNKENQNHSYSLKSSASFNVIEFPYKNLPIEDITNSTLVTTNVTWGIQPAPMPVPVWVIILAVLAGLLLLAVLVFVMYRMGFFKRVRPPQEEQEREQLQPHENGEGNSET
Chain of full-length integrin αVβ5 ectopically expressed on HEK293T cells (P18084 24-799 limits assumed, chain 2 of 2, further chain): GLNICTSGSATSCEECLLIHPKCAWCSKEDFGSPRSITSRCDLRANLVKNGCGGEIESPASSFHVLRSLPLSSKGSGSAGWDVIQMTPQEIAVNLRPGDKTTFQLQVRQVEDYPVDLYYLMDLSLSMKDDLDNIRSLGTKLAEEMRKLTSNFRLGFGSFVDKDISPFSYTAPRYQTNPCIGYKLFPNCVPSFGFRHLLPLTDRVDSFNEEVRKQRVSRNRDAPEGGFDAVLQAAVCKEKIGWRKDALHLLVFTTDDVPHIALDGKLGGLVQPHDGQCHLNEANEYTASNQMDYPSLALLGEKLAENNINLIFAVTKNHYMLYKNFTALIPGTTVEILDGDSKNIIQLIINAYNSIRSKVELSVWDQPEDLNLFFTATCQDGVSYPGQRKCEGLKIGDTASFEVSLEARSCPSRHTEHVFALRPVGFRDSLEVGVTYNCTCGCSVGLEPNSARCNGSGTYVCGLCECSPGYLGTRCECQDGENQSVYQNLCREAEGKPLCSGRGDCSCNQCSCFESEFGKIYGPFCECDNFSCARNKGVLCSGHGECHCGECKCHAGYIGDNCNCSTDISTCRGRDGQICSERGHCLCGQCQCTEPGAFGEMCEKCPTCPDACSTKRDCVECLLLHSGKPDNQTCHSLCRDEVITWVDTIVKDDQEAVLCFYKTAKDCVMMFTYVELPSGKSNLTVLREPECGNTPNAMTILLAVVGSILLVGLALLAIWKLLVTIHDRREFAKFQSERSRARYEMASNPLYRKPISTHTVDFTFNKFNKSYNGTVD

## irisin N45Q mutant (irisin glycosylation mutant, recombinant, from mammalian Expi293 cells) (from UniProt Q8K3V5 60-171) (ligand)
  concentration at maximal integrin signaling (pFAK western blot, HEK293T cells pretreated with Hsp90α): 0.1 nM
  fold more potent integrin signaling than WT irisin: 5 to 10 fold
